Test results from patent publication US20080131419A1.

Experiments:
[1] = target: actin filaments (F-actin) of lily pollen tubes (lily (Lilium grandiflorum / Lilium longiflorum cv. Osnat)); assay: cell-based or functional assay
[2] = target: actin filaments (F-actin) of lily pollen tubes

inhibition of lily pollen tube elongation, 1 uM enzymatically heat-inactivated RNase B1 (EI-RNase B1) [1]: 55%
B1: Aspergillus niger B1 extracellular RNase (RNase B1) (protein)
chain: TIDTCSSDSPLSCQTDNEASCCFNSPGGSLLQTQFWDYDPSDGPSGSWTIHGLWPDNCDGTYQEYCDESREYSNITSILEAQNRTELLSYMKEYWPDYEGADEDESFWEHEWNKHGTCINTIEPSCYTDYYAQEEVGDFFQQVVDLFKTLDSYTALSDAGITPSEDATYKLSDIEDALAAIHDGYPPYVGCEDGALSQLYYYFNVKGSAIGGTYVASERLEDSNCKDSGIKYPPKYSSSKKIYGSSL
actin filament distribution in pollen tubes (TRITC-phalloidin staining) [2]: in RNase-treated pollen tubes masses of F-actin were accumulated at the tip cell wall | lily pollen tube length in vitro, RNase B1 100 units/ml (16 ug/ml), 2 h (control about 300 um) [2]: reached only 160 µm in length | lily pollen tube length in vitro, autoclaved RNase B1 (control about 300 um) [2]: Boiling or autoclaving the RNase yielded pollen tubes of 130 and 170 µm in length, respectively | lily pollen tube length in vitro, boiled RNase B1 (control about 300 um) [2]: Boiling or autoclaving the RNase yielded pollen tubes of 130 and 170 µm in length, respectively
